{
  "source": "patent US20150037339A1",
  "about": "(Regeneron, published 2015)",
  "binders": {"B1": {"name": "H4H10436P2 (antibody, human IgG4, V domains shown)", "VH": "QVQLVESGGGVVQPGRSLRLTCVASGFTVSSYGMHWVRQAPGKGLEWVAVMFYDESKKYYADSVKGRFTISRDNSKNTLYLQMNSLRVEDTAVYYCARDEQLDFEYWGQGTLVTVSS", "VL": "not shown", "notes": "H4H prefix means human IgG4 Fc"}, "B2": {"name": "H4H10429P (antibody, human IgG4, V domains shown)", "VH": "QVQLVESGGGVVQPGRSLRLSCVASGFTVSSYGIHWVRQAPGKGLEWVSVIWYDGRNKDYADSVKGRFTISRDNSKNTVYLEMKGLRAEDTALYYCARDKTGDFDSWGQGTLVTVSS", "VL": "DIQMTQSPSSLSASVGDRVTITCRASQNINSFLSWYQQKPGKAPKFLIYDASSIQSGAPSRFSGSGSGTDFTLTISSLQPEDFATYYCQQSYSSPFTFGQGTKLEIK", "notes": "as for B1"}},
  "key": {"[1]": {"target": "T1, Activin A (homodimer of two inhibin βA subunits; R&D Systems, #338-AC) (human, UniProt P08476 311-426)", "T1 construct": "Bought protein; also called inhibin-βA dimer", "T1 sequence": "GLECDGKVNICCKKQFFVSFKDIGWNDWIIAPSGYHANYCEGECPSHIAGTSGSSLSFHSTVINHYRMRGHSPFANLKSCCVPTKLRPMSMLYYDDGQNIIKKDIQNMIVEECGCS", "assay": "SPR blocking: 5 nM Activin A + 7.5 nM binder over Follistatin-288 surface", "protocol": "(§1) The binding signal (RU) was measured at 150 seconds after the start of the injection, and this signal was subtracted by the measured RU value for a negative control reference surface to determine the specific binding signal."}, "[2]": {"target": "T1, Activin A (homodimer of two inhibin βA …)", "assay": "SPR blocking: 5 nM Activin A + 7.50 nM binder over hActRIIB-hFc (Control 4) surface"}, "[3]": {"target": "T1, Activin A (homodimer of two inhibin βA …)", "assay": "SPR blocking: 5 nM Activin A + 0.00 nM binder over hActRIIB-hFc (Control 4) surface", "protocol": "as §1"}, "[4]": {"target": "T1, Activin A (homodimer of two inhibin βA …)", "assay": "SPR blocking: 5 nM Activin A + 3.75 nM binder over Follistatin-288 surface", "protocol": "as §1"}, "[5]": {"target": "T1, Activin A (homodimer of two inhibin βA …)", "assay": "SPR blocking: 5 nM Activin A + 7.50 nM binder over hActRIIA-hFc surface", "protocol": "as §1"}, "[6]": {"target": "T1, Activin A (homodimer of two inhibin βA …)", "assay": "SPR blocking: 5 nM Activin A + 3.75 nM binder over hActRIIA-hFc surface", "protocol": "as §1"}, "[7]": {"target": "T1, Activin A (homodimer of two inhibin βA …)", "assay": "SPR blocking: 5 nM Activin A + 15 nM binder over Follistatin-288 surface", "protocol": "as §1"}, "[8]": {"target": "T1, Activin A (homodimer of two inhibin βA …)", "assay": "SPR blocking: 5 nM Activin A + 0.94 nM binder over hActRIIA-hFc surface", "protocol": "as §1"}, "[9]": {"target": "T1, Activin A (homodimer of two inhibin βA …)", "assay": "SPR blocking: 5 nM Activin A + 0.00 nM binder over hActRIIA-hFc surface", "protocol": "as §1"}, "[10]": {"target": "T1, Activin A (homodimer of two inhibin βA …)", "assay": "SPR blocking: 5 nM Activin A + 1.88 nM binder over Follistatin-288 surface", "protocol": "as §1"}, "[11]": {"target": "T1, Activin A (homodimer of two inhibin βA …)", "assay": "SPR blocking: 5 nM Activin A + 60 nM binder over hActRIIB-hFc (Control 4) surface", "protocol": "as §1"}, "[12]": {"target": "T1, Activin A (homodimer of two inhibin βA …)", "assay": "SPR blocking: 5 nM Activin A + 0.94 nM binder over hActRIIB-hFc (Control 4) surface"}, "BMP10": {"target": "T2, BMP10 (human, UniProt O95393 317-424)", "T2 sequence (looked up)": "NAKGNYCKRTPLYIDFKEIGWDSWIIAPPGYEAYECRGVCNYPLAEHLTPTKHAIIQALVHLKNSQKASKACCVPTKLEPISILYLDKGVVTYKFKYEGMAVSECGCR", "assay": "cell-based or functional assay"}, "[13]": {"target": "T1, Activin A (homodimer of two inhibin βA …)", "assay": "SPR blocking: 5 nM Activin A + 30 nM binder over Follistatin-288 surface", "protocol": "as §1"}, "[14]": {"target": "T1, Activin A (homodimer of two inhibin βA …)", "assay": "SPR blocking: 5 nM Activin A + 30 nM binder over hActRIIB-hFc (Control 4) surface", "protocol": "as §1"}, "[15]": {"target": "T1, Activin A (homodimer of two inhibin βA …)", "assay": "SPR blocking: 5 nM Activin A + 60 nM binder over Follistatin-288 surface", "protocol": "as §1"}, "[16]": {"target": "T1, Activin A (homodimer of two inhibin βA …)", "assay": "SPR blocking: 5 nM Activin A + 0.94 nM binder over Follistatin-288 surface", "protocol": "as §1"}, "[17]": {"target": "T1, Activin A (homodimer of two inhibin βA …)", "assay": "SPR blocking: 5 nM Activin A + 60 nM binder over hActRIIA-hFc surface", "protocol": "as §1"}, "[18]": {"target": "T1, Activin A (homodimer of two inhibin βA …)", "assay": "SPR blocking: 5 nM Activin A + 1.88 nM binder over hActRIIB-hFc (Control 4) surface", "protocol": "as §1"}, "[19]": {"target": "T1, Activin A (homodimer of two inhibin βA …)", "assay": "SPR blocking: 5 nM Activin A + 15 nM binder over hActRIIA-hFc surface", "protocol": "as §1"}, "[20]": {"target": "T1, Activin A (homodimer of two inhibin βA …)", "assay": "SPR blocking: 5 nM Activin A + 3.75 nM binder over hActRIIB-hFc (Control 4) surface", "protocol": "as §1"}, "[21]": {"target": "T1, Activin A (homodimer of two inhibin βA …)", "assay": "SPR blocking: 5 nM Activin A + 15 nM binder over hActRIIB-hFc (Control 4) surface"}, "[22]": {"target": "T1, Activin A (homodimer of two inhibin βA …)", "assay": "SPR blocking: 5 nM Activin A + 0 nM binder over Follistatin-288 surface", "protocol": "as §1"}, "[23]": {"target": "T1, Activin A (homodimer of two inhibin βA …)", "assay": "SPR blocking: 5 nM Activin A + 1.88 nM binder over hActRIIA-hFc surface", "protocol": "as §1"}, "[24]": {"target": "T1, Activin A (homodimer of two inhibin βA …)", "assay": "SPR blocking: 5 nM Activin A + 30 nM binder over hActRIIA-hFc surface", "protocol": "as §1"}, "BMP9": {"target": "T3, BMP9 (human, UniProt Q9UK05 320-429)", "T3 sequence (looked up)": "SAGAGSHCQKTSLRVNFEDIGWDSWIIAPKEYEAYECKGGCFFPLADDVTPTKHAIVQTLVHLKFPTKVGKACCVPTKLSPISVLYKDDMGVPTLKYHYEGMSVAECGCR", "assay": "cell-based or functional assay"}},
  "data": [
    {"binder": "B1", "values": [
      {"measurement": "% bound RU w/no inhibitor", "setting": "[1]", "result": 1, "unit": "%"},
      {"measurement": "% bound RU w/no inhibitor", "setting": "[2]", "result": 3, "unit": "%"},
      {"measurement": "% bound RU w/no inhibitor", "setting": "[3]", "result": 100, "unit": "%"},
      {"measurement": "% bound RU w/no inhibitor", "setting": "[4]", "result": 16, "unit": "%"},
      {"measurement": "% bound RU w/no inhibitor", "setting": "[5]", "result": 2, "unit": "%"},
      {"measurement": "% bound RU w/no inhibitor", "setting": "[6]", "result": 16, "unit": "%"},
      {"measurement": "% bound RU w/no inhibitor", "setting": "[7]", "result": 1, "unit": "%"},
      {"measurement": "% bound RU w/no inhibitor", "setting": "[8]", "result": 75, "unit": "%"},
      {"measurement": "% bound RU w/no inhibitor", "setting": "[9]", "result": 100, "unit": "%"},
      {"measurement": "% bound RU w/no inhibitor", "setting": "[10]", "result": 61, "unit": "%"},
      {"measurement": "% bound RU w/no inhibitor", "setting": "[11]", "result": 4, "unit": "%"},
      {"measurement": "% bound RU w/no inhibitor", "setting": "[12]", "result": 80, "unit": "%"},
      {"measurement": "IC50 [M]; inhibition of 4 nM BMP10 in W-20-17/BRE-luc cells", "setting": "BMP10", "result": "> 1e-07", "unit": "M"},
      {"measurement": "% bound RU w/no inhibitor", "setting": "[13]", "result": 2, "unit": "%"},
      {"measurement": "% bound RU w/no inhibitor", "setting": "[14]", "result": 3, "unit": "%"},
      {"measurement": "% bound RU w/no inhibitor", "setting": "[15]", "result": 2, "unit": "%"},
      {"measurement": "% bound RU w/no inhibitor", "setting": "[16]", "result": 78, "unit": "%"},
      {"measurement": "% bound RU w/no inhibitor", "setting": "[17]", "result": 2, "unit": "%"},
      {"measurement": "% bound RU w/no inhibitor", "setting": "[18]", "result": 60, "unit": "%"},
      {"measurement": "% bound RU w/no inhibitor", "setting": "[19]", "result": 2, "unit": "%"},
      {"measurement": "% bound RU w/no inhibitor", "setting": "[20]", "result": 19, "unit": "%"},
      {"measurement": "% bound RU w/no inhibitor", "setting": "[21]", "result": 2, "unit": "%"},
      {"measurement": "% bound RU w/no inhibitor", "setting": "[22]", "result": 100, "unit": "%"},
      {"measurement": "% bound RU w/no inhibitor", "setting": "[23]", "result": 55, "unit": "%"},
      {"measurement": "% bound RU w/no inhibitor", "setting": "[24]", "result": 2, "unit": "%"}
    ]},
    {"binder": "B2", "values": [
      {"measurement": "% bound RU w/no inhibitor", "setting": "[1]", "result": 1, "unit": "%"},
      {"measurement": "% bound RU w/no inhibitor", "setting": "[2]", "result": 2, "unit": "%"},
      {"measurement": "% bound RU w/no inhibitor", "setting": "[3]", "result": 100, "unit": "%"},
      {"measurement": "% bound RU w/no inhibitor", "setting": "[4]", "result": 20, "unit": "%"},
      {"measurement": "% bound RU w/no inhibitor", "setting": "[5]", "result": 1, "unit": "%"},
      {"measurement": "% bound RU w/no inhibitor", "setting": "[6]", "result": 19, "unit": "%"},
      {"measurement": "% bound RU w/no inhibitor", "setting": "[7]", "result": 1, "unit": "%"},
      {"measurement": "% bound RU w/no inhibitor", "setting": "[8]", "result": 87, "unit": "%"},
      {"measurement": "% bound RU w/no inhibitor", "setting": "[9]", "result": 100, "unit": "%"},
      {"measurement": "% bound RU w/no inhibitor", "setting": "[10]", "result": 80, "unit": "%"},
      {"measurement": "% bound RU w/no inhibitor", "setting": "[11]", "result": 3, "unit": "%"},
      {"measurement": "% bound RU w/no inhibitor", "setting": "[12]", "result": 87, "unit": "%"},
      {"measurement": "IC50 [M]; inhibition of 800 pM BMP9 in W-20-17/BRE-luc cells", "setting": "BMP9", "result": "8.1e-09", "unit": "M"},
      {"measurement": "IC50 [M]; inhibition of 4 nM BMP10 in W-20-17/BRE-luc cells", "setting": "BMP10", "result": "3.5e-09", "unit": "M"},
      {"measurement": "% bound RU w/no inhibitor", "setting": "[13]", "result": 2, "unit": "%"},
      {"measurement": "% bound RU w/no inhibitor", "setting": "[14]", "result": 2, "unit": "%"},
      {"measurement": "% bound RU w/no inhibitor", "setting": "[15]", "result": 3, "unit": "%"},
      {"measurement": "% bound RU w/no inhibitor", "setting": "[16]", "result": 97, "unit": "%"},
      {"measurement": "% bound RU w/no inhibitor", "setting": "[17]", "result": 1, "unit": "%"},
      {"measurement": "% bound RU w/no inhibitor", "setting": "[18]", "result": 67, "unit": "%"},
      {"measurement": "% bound RU w/no inhibitor", "setting": "[19]", "result": 1, "unit": "%"},
      {"measurement": "% bound RU w/no inhibitor", "setting": "[20]", "result": 19, "unit": "%"},
      {"measurement": "% bound RU w/no inhibitor", "setting": "[21]", "result": 2, "unit": "%"},
      {"measurement": "% bound RU w/no inhibitor", "setting": "[22]", "result": 100, "unit": "%"},
      {"measurement": "% bound RU w/no inhibitor", "setting": "[23]", "result": 66, "unit": "%"},
      {"measurement": "% bound RU w/no inhibitor", "setting": "[24]", "result": 1, "unit": "%"}
    ]}
  ]
}
